# Laboratory results published in patent US20150344570A1 (published 2015).
# T1: FcγRIIa H (FcγRIIa type H, His at position 131), extracellular domain with C-terminal His tag (human, UniProt P12318 34-217)
# T1 construct: extracellular domain; expressed in FreeStyle293 cells; also called FcgRIIa H; 2aH; not shown: His tag attached to the C terminus
# T1 sequence (looked up): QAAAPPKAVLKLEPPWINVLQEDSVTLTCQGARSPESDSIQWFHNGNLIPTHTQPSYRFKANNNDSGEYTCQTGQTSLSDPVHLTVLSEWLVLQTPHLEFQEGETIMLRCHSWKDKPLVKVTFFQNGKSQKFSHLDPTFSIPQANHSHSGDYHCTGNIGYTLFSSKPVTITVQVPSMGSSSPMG
# T2: FcγRIIb, extracellular domain with C-terminal His tag (human, UniProt P31994 43-217)
# T2 construct: extracellular domain; expressed in FreeStyle293 cells; also called FcgRIIb; 2b; not shown: His tag attached to the C terminus
# T2 sequence (looked up): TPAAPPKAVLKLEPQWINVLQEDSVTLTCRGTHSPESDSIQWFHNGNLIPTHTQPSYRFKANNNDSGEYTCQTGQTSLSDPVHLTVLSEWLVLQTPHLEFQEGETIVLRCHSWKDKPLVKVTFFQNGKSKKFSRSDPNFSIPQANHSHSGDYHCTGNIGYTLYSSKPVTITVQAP
# Experiments:
# [1] = biological target: T1, FcγRIIa H (FcγRIIa type H, His at …); test: SPR (Biacore); He/Con_2aH divided by He/Con_2b (FcγRIIa H against FcγRIIb)
# [2] = biological target: T1, FcγRIIa H (FcγRIIa type H, His at …); test: SPR (Biacore), antibody captured on antigen peptide chip, FcγR as analyte; relative to GpH7-A5/GpH7-B3/GpL16-k0 = 100
# [3] = biological target: T2, FcγRIIb, extracellular domain with …; test: as above
He_2aH/2b (IIaH/IIb) [1],He/Con_2aH (relative binding activity) [2],He/Con_2b (relative binding activity) [3],Binder
0.27 ratio,59.8 % of HeCon Ab (= 100),218 % of HeCon Ab (= 100),"GpH7-A5/GpH7-B3 variant P238_15Y/GpL16-k0 (antibody, human IgG1, kappa, Heterodimerized antibody (He Ab): mutation in the GpH7-B3 chain only; also called He Ab) heavy 1: not shown heavy 2: not shown light: DIVMTQSPLSLPVTPGEPASISCQASESLVHSNRNTYLHWYLQKPGQSPQLLIYKVSNRFSGVPDRFSGSGSGTDFTLKISRVEAEDVGVYYCSQNTHVPPTFGQGTKVEIERTVAAPSVFIFPPSDEQLKSGTASVVCLLNNFYPREAKVQWKVDNALQSGNSQESVTEQDSKDSTYSLSSTLTLSKADYEKHKVYACEVTHQGLSSPVTKSFNRGEC"
0.74 ratio,37.7 % of HeCon Ab (= 100),50.7 % of HeCon Ab (= 100),"GpH7-A5/GpH7-B3 variant P238_14T/GpL16-k0 (antibody, human IgG1, kappa, Heterodimerized antibody (He Ab): mutation in the GpH7-B3 chain only; also called He Ab) heavy 1: not shown heavy 2: not shown light: DIVMTQSPLSLPVTPGEPASISCQASESLVHSNRNTYLHWYLQKPGQSPQLLIYKVSNRFSGVPDRFSGSGSGTDFTLKISRVEAEDVGVYYCSQNTHVPPTFGQGTKVEIERTVAAPSVFIFPPSDEQLKSGTASVVCLLNNFYPREAKVQWKVDNALQSGNSQESVTEQDSKDSTYSLSSTLTLSKADYEKHKVYACEVTHQGLSSPVTKSFNRGEC"
0.4 ratio,45.9 % of HeCon Ab (= 100),115 % of HeCon Ab (= 100),"GpH7-A5/GpH7-B3 variant P238_16H/GpL16-k0 (antibody, human IgG1, kappa, Heterodimerized antibody (He Ab): mutation in the GpH7-B3 chain only; also called He Ab) heavy 1: not shown heavy 2: not shown light: DIVMTQSPLSLPVTPGEPASISCQASESLVHSNRNTYLHWYLQKPGQSPQLLIYKVSNRFSGVPDRFSGSGSGTDFTLKISRVEAEDVGVYYCSQNTHVPPTFGQGTKVEIERTVAAPSVFIFPPSDEQLKSGTASVVCLLNNFYPREAKVQWKVDNALQSGNSQESVTEQDSKDSTYSLSSTLTLSKADYEKHKVYACEVTHQGLSSPVTKSFNRGEC"
0.4 ratio,87.5 % of HeCon Ab (= 100),221 % of HeCon Ab (= 100),"GpH7-A5/GpH7-B3 variant P238_09D/GpL16-k0 (antibody, human IgG1, kappa, Heterodimerized antibody (He Ab): mutation in the GpH7-B3 chain only; also called He Ab) heavy 1: not shown heavy 2: not shown light: DIVMTQSPLSLPVTPGEPASISCQASESLVHSNRNTYLHWYLQKPGQSPQLLIYKVSNRFSGVPDRFSGSGSGTDFTLKISRVEAEDVGVYYCSQNTHVPPTFGQGTKVEIERTVAAPSVFIFPPSDEQLKSGTASVVCLLNNFYPREAKVQWKVDNALQSGNSQESVTEQDSKDSTYSLSSTLTLSKADYEKHKVYACEVTHQGLSSPVTKSFNRGEC"

# The next lines start with the binder.
Binder,He_2aH/2b (IIaH/IIb) [1],He/Con_2aH (relative binding activity) [2],He/Con_2b (relative binding activity) [3]
"GpH7-A5/GpH7-B3 variant P238_08L/GpL16-k0 (antibody, human IgG1, kappa, Heterodimerized antibody (He Ab): mutation in the GpH7-B3 chain only; also called He Ab) heavy 1: not shown heavy 2: not shown light: DIVMTQSPLSLPVTPGEPASISCQASESLVHSNRNTYLHWYLQKPGQSPQLLIYKVSNRFSGVPDRFSGSGSGTDFTLKISRVEAEDVGVYYCSQNTHVPPTFGQGTKVEIERTVAAPSVFIFPPSDEQLKSGTASVVCLLNNFYPREAKVQWKVDNALQSGNSQESVTEQDSKDSTYSLSSTLTLSKADYEKHKVYACEVTHQGLSSPVTKSFNRGEC",0.41 ratio,84.6 % of HeCon Ab (= 100),204 % of HeCon Ab (= 100)
"GpH7-A5/GpH7-B3 variant S239_08L/GpL16-k0 (antibody, human IgG1, kappa, Heterodimerized antibody (He Ab): mutation in the GpH7-B3 chain only; also called He Ab) heavy 1: not shown heavy 2: not shown light: DIVMTQSPLSLPVTPGEPASISCQASESLVHSNRNTYLHWYLQKPGQSPQLLIYKVSNRFSGVPDRFSGSGSGTDFTLKISRVEAEDVGVYYCSQNTHVPPTFGQGTKVEIERTVAAPSVFIFPPSDEQLKSGTASVVCLLNNFYPREAKVQWKVDNALQSGNSQESVTEQDSKDSTYSLSSTLTLSKADYEKHKVYACEVTHQGLSSPVTKSFNRGEC",0.75 ratio,105 % of HeCon Ab (= 100),140 % of HeCon Ab (= 100)
"GpH7-A5/GpH7-B3 variant P238_20W/GpL16-k0 (antibody, human IgG1, kappa, Heterodimerized antibody (He Ab): mutation in the GpH7-B3 chain only; also called He Ab) heavy 1: not shown heavy 2: not shown light: DIVMTQSPLSLPVTPGEPASISCQASESLVHSNRNTYLHWYLQKPGQSPQLLIYKVSNRFSGVPDRFSGSGSGTDFTLKISRVEAEDVGVYYCSQNTHVPPTFGQGTKVEIERTVAAPSVFIFPPSDEQLKSGTASVVCLLNNFYPREAKVQWKVDNALQSGNSQESVTEQDSKDSTYSLSSTLTLSKADYEKHKVYACEVTHQGLSSPVTKSFNRGEC",0.49 ratio,59.5 % of HeCon Ab (= 100),123 % of HeCon Ab (= 100)
"GpH7-A5/GpH7-B3 variant S239_01G/GpL16-k0 (antibody, human IgG1, kappa, Heterodimerized antibody (He Ab): mutation in the GpH7-B3 chain only; also called He Ab) heavy 1: not shown heavy 2: not shown light: DIVMTQSPLSLPVTPGEPASISCQASESLVHSNRNTYLHWYLQKPGQSPQLLIYKVSNRFSGVPDRFSGSGSGTDFTLKISRVEAEDVGVYYCSQNTHVPPTFGQGTKVEIERTVAAPSVFIFPPSDEQLKSGTASVVCLLNNFYPREAKVQWKVDNALQSGNSQESVTEQDSKDSTYSLSSTLTLSKADYEKHKVYACEVTHQGLSSPVTKSFNRGEC",0.67 ratio,97 % of HeCon Ab (= 100),144 % of HeCon Ab (= 100)
"GpH7-A5/GpH7-B3 variant P238_18N/GpL16-k0 (antibody, human IgG1, kappa, Heterodimerized antibody (He Ab): mutation in the GpH7-B3 chain only; also called He Ab) heavy 1: not shown heavy 2: not shown light: DIVMTQSPLSLPVTPGEPASISCQASESLVHSNRNTYLHWYLQKPGQSPQLLIYKVSNRFSGVPDRFSGSGSGTDFTLKISRVEAEDVGVYYCSQNTHVPPTFGQGTKVEIERTVAAPSVFIFPPSDEQLKSGTASVVCLLNNFYPREAKVQWKVDNALQSGNSQESVTEQDSKDSTYSLSSTLTLSKADYEKHKVYACEVTHQGLSSPVTKSFNRGEC",0.73 ratio,53.5 % of HeCon Ab (= 100),73.2 % of HeCon Ab (= 100)
"GpH7-A5/GpH7-B3 variant P238_10E/GpL16-k0 (antibody, human IgG1, kappa, Heterodimerized antibody (He Ab): mutation in the GpH7-B3 chain only; also called He Ab) heavy 1: not shown heavy 2: not shown light: DIVMTQSPLSLPVTPGEPASISCQASESLVHSNRNTYLHWYLQKPGQSPQLLIYKVSNRFSGVPDRFSGSGSGTDFTLKISRVEAEDVGVYYCSQNTHVPPTFGQGTKVEIERTVAAPSVFIFPPSDEQLKSGTASVVCLLNNFYPREAKVQWKVDNALQSGNSQESVTEQDSKDSTYSLSSTLTLSKADYEKHKVYACEVTHQGLSSPVTKSFNRGEC",0.33 ratio,77.1 % of HeCon Ab (= 100),232 % of HeCon Ab (= 100)
"GpH7-A5/GpH7-B3 variant S239_09D/GpL16-k0 (antibody, human IgG1, kappa, Heterodimerized antibody (He Ab): mutation in the GpH7-B3 chain only; also called He Ab) heavy 1: not shown heavy 2: not shown light: DIVMTQSPLSLPVTPGEPASISCQASESLVHSNRNTYLHWYLQKPGQSPQLLIYKVSNRFSGVPDRFSGSGSGTDFTLKISRVEAEDVGVYYCSQNTHVPPTFGQGTKVEIERTVAAPSVFIFPPSDEQLKSGTASVVCLLNNFYPREAKVQWKVDNALQSGNSQESVTEQDSKDSTYSLSSTLTLSKADYEKHKVYACEVTHQGLSSPVTKSFNRGEC",0.56 ratio,114 % of HeCon Ab (= 100),206 % of HeCon Ab (= 100)
"GpH7-A5/GpH7-B3 variant S239_05P/GpL16-k0 (antibody, human IgG1, kappa, Heterodimerized antibody (He Ab): mutation in the GpH7-B3 chain only; also called He Ab) heavy 1: not shown heavy 2: not shown light: DIVMTQSPLSLPVTPGEPASISCQASESLVHSNRNTYLHWYLQKPGQSPQLLIYKVSNRFSGVPDRFSGSGSGTDFTLKISRVEAEDVGVYYCSQNTHVPPTFGQGTKVEIERTVAAPSVFIFPPSDEQLKSGTASVVCLLNNFYPREAKVQWKVDNALQSGNSQESVTEQDSKDSTYSLSSTLTLSKADYEKHKVYACEVTHQGLSSPVTKSFNRGEC",0.33 ratio,33.3 % of HeCon Ab (= 100),102 % of HeCon Ab (= 100)
"GpH7-A5/GpH7-B3 variant P238_19Q/GpL16-k0 (antibody, human IgG1, kappa, Heterodimerized antibody (He Ab): mutation in the GpH7-B3 chain only; also called He Ab) heavy 1: not shown heavy 2: not shown light: DIVMTQSPLSLPVTPGEPASISCQASESLVHSNRNTYLHWYLQKPGQSPQLLIYKVSNRFSGVPDRFSGSGSGTDFTLKISRVEAEDVGVYYCSQNTHVPPTFGQGTKVEIERTVAAPSVFIFPPSDEQLKSGTASVVCLLNNFYPREAKVQWKVDNALQSGNSQESVTEQDSKDSTYSLSSTLTLSKADYEKHKVYACEVTHQGLSSPVTKSFNRGEC",0.51 ratio,56.4 % of HeCon Ab (= 100),110 % of HeCon Ab (= 100)
"GpH7-A5/GpH7-B3 variant P238_13S/GpL16-k0 (antibody, human IgG1, kappa, Heterodimerized antibody (He Ab): mutation in the GpH7-B3 chain only; also called He Ab) heavy 1: not shown heavy 2: not shown light: DIVMTQSPLSLPVTPGEPASISCQASESLVHSNRNTYLHWYLQKPGQSPQLLIYKVSNRFSGVPDRFSGSGSGTDFTLKISRVEAEDVGVYYCSQNTHVPPTFGQGTKVEIERTVAAPSVFIFPPSDEQLKSGTASVVCLLNNFYPREAKVQWKVDNALQSGNSQESVTEQDSKDSTYSLSSTLTLSKADYEKHKVYACEVTHQGLSSPVTKSFNRGEC",0.72 ratio,50.9 % of HeCon Ab (= 100),70.4 % of HeCon Ab (= 100)
